Assay results published in patent US20090053213A1.

How the values were obtained:
[1] = target: human GM-CSF receptor alpha chain (human) (UniProt P15509); test: FACS on CHO-GMRa#11 cells, MAB1006 at 1 µg/ml, R-PE anti-mouse secondary, FL2 channel
[2] = target: macaca mulatta (rhesus) GM-CSF (Macaca mulatta (rhesus)); test: cell-based or functional assay
human GM-CSF (human) [3] = target: human GM-CSF (human) (UniProt P04141); test: cell-based or functional assay
human GM-CSF (human) [4] = target: human GM-CSF (human) (UniProt P04141); test: FACS receptor inhibition assay: inhibition of binding of 0.5 µg/ml biotinylated GM-CSF to GM-CSF receptor alpha on CHO-GMRa#11 cells

Chain of human GM-CSF (human) (P04141 18-144): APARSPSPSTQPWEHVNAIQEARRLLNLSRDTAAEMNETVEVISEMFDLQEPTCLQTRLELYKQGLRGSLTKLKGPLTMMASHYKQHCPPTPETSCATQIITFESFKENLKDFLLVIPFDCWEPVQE
Chain of human GM-CSF receptor alpha chain (human) (P15509 23-400): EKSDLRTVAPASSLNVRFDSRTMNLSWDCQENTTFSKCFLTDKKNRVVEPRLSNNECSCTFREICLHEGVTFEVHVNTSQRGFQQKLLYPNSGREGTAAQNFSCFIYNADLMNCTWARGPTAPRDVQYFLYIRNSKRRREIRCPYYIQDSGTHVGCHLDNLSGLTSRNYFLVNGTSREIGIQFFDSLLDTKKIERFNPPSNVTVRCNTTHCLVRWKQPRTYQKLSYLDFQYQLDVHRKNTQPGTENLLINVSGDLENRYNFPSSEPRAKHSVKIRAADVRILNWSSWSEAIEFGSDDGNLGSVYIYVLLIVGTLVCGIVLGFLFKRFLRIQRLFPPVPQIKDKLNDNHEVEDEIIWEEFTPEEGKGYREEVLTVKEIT

median fluorescence value (MFL value) [1]	IC50 (pM) in TF-1 proliferation assay, macaca GM-CSF (HEK293) [2] [pM]	IC50 (pM) in TF-1 proliferation assay, human GM-CSF 0.25 ng/ml (human GM-CSF (human) [3]) [pM]	IC50 (pM) in TF-1 proliferation assay, human GM-CSF (E. coli) (human GM-CSF (human) [3]) [pM]	IC50 (pM) in TF-1 proliferation assay, human GM-CSF (HEK293) (human GM-CSF (human) [3]) [pM]	IC50 x-fold improved compared to BVD2-21C11, TF-1 proliferation assay (human GM-CSF (human) [3]) [fold]	% inhibition at 5 µg/ml antibody (human GM-CSF (human) [4]) [%]	Substance
157	–	–	–	–	–	–	murine IgG MAB1006 (antibody)
–	190	4320	625	54	1.5	50	MAB215 (antibody)
